Experimental data taken from FireProtDB (doi:10.1074/jbc.m707838200).
Where “and” joins values, the source holds several entries; their conditions need not be identical. Equal entries are not always repeated.

Conditions: Staphylococcus aureus; pH 7; 25 °C; Thermal; CD; Hepes-NaOH 20 mM; NaCl 170 mM; reversible: Yes; whole UniProt chain shown

B1: wild type, Q9EYL5 (protein)
chain: MTKKLLTLFIVSMLILTACGKKESATTSSKNGKPLVVVYGDYKCPYCKELDEKVMPKLRKNYIDNHKVEYQFVNLAFLGKDSIVGSRASHAVLMYAPKSFLDFQKQLFAAQQDENKEWLTKELLDKHIKQLHLDKETENKIIKDYKTKDSKSWKAAEKDKKIAKDNHIKTTPTAFINGEKVEDPYDYESYEKLLKDKIK
unfolding free energy: 7.19 kcal/mol and 7.14 kcal/mol
